Where no end group is shown, it is not given here. The star is where a group is joined. FITC = O=C1OC2(c3ccc(O)cc3Oc3cc(O)ccc32)c2ccc(NC(=S)*)cc21
How the values were obtained:
Type in all cases: cell-based
[1] = target: T1, GPC-3 protein (Homo sapiens, UniProt P51654); test: Overlay assay on HepG2 in competition with equivalent peptide to which FITC was not bound; design: the human hepatocellular carcinoma cell line HepG2 in which GPC-3 protein was expressed; endogenous in cells; host or cells: HepG2; conditions: competition with unlabeled peptide for bonding to GPC-3 protein
Description: (§1) The peptide synthesized in Example 8 was subjected to an overlay assay. First, the human hepatocellular carcinoma cells (HepG2, Huh-7) and the renal cell (HEK293) were cultured to about 1×10^5 in an 8-well chamber slide, followed by washing three times with PBS for three min. In order to prevent non-specific reactions, a reaction was performed in Opti-MEM supplemented with 1% BSA for 1 hour. Again, washing was performed three times with PBS for three min, and then cells were fixed with a fixative containing ethanol and acetone at 2:1 for 3 min. The cells were mounted in Mounting medium supplemented with DAPI. FIGS. 8 through 10 illustrate the results.
FIG. 9 illustrates image results obtained from reaction of a peptide (FITC-RLNVGGTYFLTTRQ) containing the amino acid sequence of SEQ ID No.1 to the human hepatocellular carcinoma cell line HepG2 in which GPC-3 protein was expressed with an equivalent peptide to which FITC were not bound. […] Because a peptide in which a fluorescent material was not labeled and a fluorescent material labeled peptide were competing for bonding to GPC-3 protein, a fluorescent material labeled peptide became less likely to bind to GPC-3.

[2] = target: T1, GPC-3 protein; test: Overlay assay of FITC-labeled peptide on cell lines in which GPC-3 protein was expressed; design: the human hepatocellular carcinoma cell line HepG2 in which GPC-3 protein was expressed; endogenous in cells; host or cells: HepG2, Huh-7, SkMel28 (ATCC)
Description: as §1

[3] = system: renal cell lines in which GPC-3 protein was not expressed (HEK-293, Cos-7); test: Overlay assay of FITC-labeled peptide on cells in which GPC-3 protein was not expressed
Description: as §1

T1 sequence (P51654 25-554): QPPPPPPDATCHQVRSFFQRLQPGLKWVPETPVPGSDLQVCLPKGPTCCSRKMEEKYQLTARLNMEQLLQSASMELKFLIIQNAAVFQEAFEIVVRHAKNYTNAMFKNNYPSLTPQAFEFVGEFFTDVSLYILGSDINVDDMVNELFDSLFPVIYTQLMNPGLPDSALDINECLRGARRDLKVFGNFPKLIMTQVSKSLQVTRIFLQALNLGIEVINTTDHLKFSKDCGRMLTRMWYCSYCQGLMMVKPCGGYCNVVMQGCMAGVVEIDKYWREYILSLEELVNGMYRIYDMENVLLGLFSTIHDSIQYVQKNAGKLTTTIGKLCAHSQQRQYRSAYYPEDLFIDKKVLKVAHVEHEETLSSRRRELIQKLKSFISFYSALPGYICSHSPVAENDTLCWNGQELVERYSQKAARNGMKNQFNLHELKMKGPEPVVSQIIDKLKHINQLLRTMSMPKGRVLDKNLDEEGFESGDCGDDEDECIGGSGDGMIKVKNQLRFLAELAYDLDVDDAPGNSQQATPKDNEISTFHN

| fluorescence by FITC in presence of equivalent peptide to which FITC was not bound (FIG. 9) [1] | fluorescence by FITC (overlay, FIG. 7) ([2]; cell lines in which GPC-3 protein was expressed: HepG2, Huh-7, SkMe128, HEK-293 with GPC-3) | fluorescence by FITC (overlay, FIG. 8) ([2]; cell lines in which GPC-3 protein was expressed: HepG2, SkMe128, HEK-293 with GPC-3) | Substance | fluorescence by FITC (overlay, FIG. 7) ([3]; renal cell lines in which GPC-3 protein was not expressed: HEK-293, Cos-7) | fluorescence by FITC (overlay, FIG. 8) ([3]; renal cell line in which GPC-3 protein was not expressed: Cos-7) |
| --- | --- | --- | --- | --- | --- |
| fluorescence was not observed | fluorescence by FITC was observed |  | FITC-RLNVGGTYFLTTRQ ({FITC}-RLNVGGTYFLTTRQ) | fluorescence was not observed |  |
|  |  | fluorescence by FITC was observed | FITC-YFLTTRQ ({FITC}-YFLTTRQ) |  | fluorescence was not observed |

Source: patent US8388937B2, “Specific peptide binding to glypican-3” (Kyungpook National University Industry—Academic Cooperation …, priority 2009, dated 2013)
